Results taken from patent US20240391954A1, “MC4R AGONIST PEPTIDES” (The Regents of the University of Michigan, priority 2021, published 2024).
Positions of bridges follow the written chain, without caps; N, C: chain ends. Non-standard residues stand in square brackets, D forms with d. Phe(4-Br) = N[C@@H](Cc1ccc(Br)cc1)C(=O)O; dPhe(4-Br) = N[C@H](Cc1ccc(Br)cc1)C(=O)O; d(hPhe) = N[C@H](CCc1ccccc1)C(=O)O; Nle = CCCC[C@H](N)C(=O)O; R2 = not defined here

Experiments:
Test in all cases: cell-based or functional assay
human MC3R = human MC3R (human, UniProt P41968 1-323)
human MC3R, sequence (P41968 whole entry): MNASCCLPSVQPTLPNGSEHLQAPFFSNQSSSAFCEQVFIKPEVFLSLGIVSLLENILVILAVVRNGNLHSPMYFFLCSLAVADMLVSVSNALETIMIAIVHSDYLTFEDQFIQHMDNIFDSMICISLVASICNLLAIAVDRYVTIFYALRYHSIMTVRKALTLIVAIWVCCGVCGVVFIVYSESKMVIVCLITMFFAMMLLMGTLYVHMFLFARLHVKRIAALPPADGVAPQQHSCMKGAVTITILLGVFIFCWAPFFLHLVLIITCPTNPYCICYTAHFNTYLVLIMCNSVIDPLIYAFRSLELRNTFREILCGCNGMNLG

human MC4R receptor [1] = biological target: T1, human MC4R receptor (human, UniProt P32245 1-332)
T1 sequence (P32245 whole entry): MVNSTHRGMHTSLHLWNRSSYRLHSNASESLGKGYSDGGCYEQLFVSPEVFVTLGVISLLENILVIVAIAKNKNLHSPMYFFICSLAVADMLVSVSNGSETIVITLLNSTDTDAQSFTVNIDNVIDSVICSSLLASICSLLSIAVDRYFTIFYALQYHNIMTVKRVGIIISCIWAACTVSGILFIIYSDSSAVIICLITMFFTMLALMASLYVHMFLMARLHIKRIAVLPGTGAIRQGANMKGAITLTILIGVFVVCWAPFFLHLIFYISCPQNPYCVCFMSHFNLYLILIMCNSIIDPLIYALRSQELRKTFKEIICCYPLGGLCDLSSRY

human MC4R receptor [2] = biological target: T1, human MC4R receptor; remark: listed apart in the source

Binder	% max activation (human MC3R)	cAMP EC50 (human MC3R)	% max activation (human MC4R receptor [1])	cAMP EC50 (human MC4R receptor [1])	MC4R selectivity vs MC1R (human MC4R receptor [2])	MC4R selectivity vs MC3R (human MC4R receptor [2])
Ac-RC[dA]R[dPhe(4-Br)]R[dW]CRFG-OH (disulfide 2-8; SMILES CC(=O)N[C@@H](CCCNC(=N)N)C(=O)N[C@H]1CSSC[C@@H](C(=O)N[C@@H](CCCNC(=N)N)C(=O)N[C@@H](Cc2ccccc2)C(=O)NCC(=O)O)NC(=O)[C@@H](Cc2c[nH]c3ccccc23)NC(=O)[C@H](CCCNC(=N)N)NC(=O)[C@@H](Cc2ccc(Br)cc2)NC(=O)[C@H](CCCNC(=N)N)NC(=O)[C@@H](C)NC1=O) [CTX-1219]	20%	4.5 nM	76%	2.3 nM	1	1.99
Ac-R[Nle]CR[dPhe(4-Br)]R[dW]C-NH2 (disulfide 3-8; SMILES CCCC[C@H](NC(=O)[C@H](CCCNC(=N)N)NC(C)=O)C(=O)N[C@H]1CSSC[C@@H](C(N)=O)NC(=O)[C@@H](Cc2c[nH]c3ccccc23)NC(=O)[C@H](CCCNC(=N)N)NC(=O)[C@@H](Cc2ccc(Br)cc2)NC(=O)[C@H](CCCNC(=N)N)NC1=O) [CTX-1613]		4 nM		1.9 nM		
Ac-R[Nle]CH[dPhe(4-Br)]R[dW]C-NH2 (disulfide 3-8; SMILES CCCC[C@H](NC(=O)[C@H](CCCNC(=N)N)NC(C)=O)C(=O)N[C@H]1CSSC[C@@H](C(N)=O)NC(=O)[C@@H](Cc2c[nH]c3ccccc23)NC(=O)[C@H](CCCNC(=N)N)NC(=O)[C@@H](Cc2ccc(Br)cc2)NC(=O)[C@H](Cc2c[nH]cn2)NC1=O) [CTX-1231]	59%	7 nM	64%	2.3 nM	0.19	3.04
Ac-RC[dA]R[dPhe(4-Br)]R[dW]CRF-NH2 (disulfide 2-8; SMILES CC(=O)N[C@@H](CCCNC(=N)N)C(=O)N[C@H]1CSSC[C@@H](C(=O)N[C@@H](CCCNC(=N)N)C(=O)N[C@@H](Cc2ccccc2)C(N)=O)NC(=O)[C@@H](Cc2c[nH]c3ccccc23)NC(=O)[C@H](CCCNC(=N)N)NC(=O)[C@@H](Cc2ccc(Br)cc2)NC(=O)[C@H](CCCNC(=N)N)NC(=O)[C@@H](C)NC1=O) [CTX-1220]	21%	7.2 nM	76%	1.87 nM	1.53	3.82
Ac-R[Nle]CR[dPhe(4-Br)]RWC-NH2 (disulfide 3-8; SMILES CCCC[C@H](NC(=O)[C@H](CCCNC(=N)N)NC(C)=O)C(=O)N[C@H]1CSSC[C@@H](C(N)=O)NC(=O)[C@H](Cc2c[nH]c3ccccc23)NC(=O)[C@H](CCCNC(=N)N)NC(=O)[C@@H](Cc2ccc(Br)cc2)NC(=O)[C@H](CCCNC(=N)N)NC1=O) [CTX-1612]		4.5 nM		2 nM		
Ac-RC[dA]R[dPhe(4-Br)]R[dW]CKP-NH2 (disulfide 2-8; SMILES CC(=O)N[C@@H](CCCNC(=N)N)C(=O)N[C@H]1CSSC[C@@H](C(=O)N[C@@H](CCCCN)C(=O)N2CCC[C@H]2C(N)=O)NC(=O)[C@@H](Cc2c[nH]c3ccccc23)NC(=O)[C@H](CCCNC(=N)N)NC(=O)[C@@H](Cc2ccc(Br)cc2)NC(=O)[C@H](CCCNC(=N)N)NC(=O)[C@@H](C)NC1=O) [CTX-1217]	13%	4 nM	69%	1.5 nM	1.12	2.73
Ac-RC[dA]R[Phe(4-Br)]R[dW]C-NH2 (disulfide 2-8) [CTX-1215]	2.1%	27 nM	56%	592 nM	0.07	0.05
R2-RC[dA]R[dPhe(4-Br)]R[dW]C-NH2 (disulfide 2-8; reading uncertain; also: printed as N-term. Mod. R2; Arg-cyclo(Cys-D-Ala-Arg-D-Phe(4-Br)-Arg-D-Trp-Cys)-NH2) [CTX-1226]	29%	12 nM	71%	3.8 nM	1.33	3.21
Ac-RC[dA]R[Phe(4-Br)]RWC-NH2 (disulfide 2-8) [CTX-1212]	0.1%	28 nM	55%	393 nM	0.07	0.07
Ac-RC[dA]R[dPhe(4-Br)]R[dW]CR[dF]-NH2 (disulfide 2-8; SMILES CC(=O)N[C@@H](CCCNC(=N)N)C(=O)N[C@H]1CSSC[C@@H](C(=O)N[C@@H](CCCNC(=N)N)C(=O)N[C@H](Cc2ccccc2)C(N)=O)NC(=O)[C@@H](Cc2c[nH]c3ccccc23)NC(=O)[C@H](CCCNC(=N)N)NC(=O)[C@@H](Cc2ccc(Br)cc2)NC(=O)[C@H](CCCNC(=N)N)NC(=O)[C@@H](C)NC1=O) [CTX-1222]	38%	9.8 nM	79%	30 nM	0.1	0.33
Ac-RC[dA]R[dPhe(4-Br)]R[dW]CK-NH2 (disulfide 2-8; SMILES CC(=O)N[C@@H](CCCNC(=N)N)C(=O)N[C@H]1CSSC[C@@H](C(=O)N[C@@H](CCCCN)C(N)=O)NC(=O)[C@@H](Cc2c[nH]c3ccccc23)NC(=O)[C@H](CCCNC(=N)N)NC(=O)[C@@H](Cc2ccc(Br)cc2)NC(=O)[C@H](CCCNC(=N)N)NC(=O)[C@@H](C)NC1=O) [CTX-1218]	16%		77%		1	1.85
Ac-RC[dA]R[d(hPhe)]R[dW]C-NH2 (disulfide 2-8) [CTX-1277]		45 nM		429 nM		
